Experimental data reported in patent publication US10456446B2, “Use of human small leucine zipper protein in osteogenesis procedure” (Korea University Research and Business Foundation, priority 2013, dated 2019).

Key:
PPARγ2 = target: T1, PPARγ2 (Mus musculus, UniProt P37238); assay: PPARγ2 transcriptional activity in FABP4-Luc stable C3H10T1/2 cells differentiated into adipocytes; type: cell-based; conditions: sLZIP-expressing adenovirus, differentiated into adipocytes for 4 days
T1 construct: endogenous in cells
T1 sequence (P37238 1-505): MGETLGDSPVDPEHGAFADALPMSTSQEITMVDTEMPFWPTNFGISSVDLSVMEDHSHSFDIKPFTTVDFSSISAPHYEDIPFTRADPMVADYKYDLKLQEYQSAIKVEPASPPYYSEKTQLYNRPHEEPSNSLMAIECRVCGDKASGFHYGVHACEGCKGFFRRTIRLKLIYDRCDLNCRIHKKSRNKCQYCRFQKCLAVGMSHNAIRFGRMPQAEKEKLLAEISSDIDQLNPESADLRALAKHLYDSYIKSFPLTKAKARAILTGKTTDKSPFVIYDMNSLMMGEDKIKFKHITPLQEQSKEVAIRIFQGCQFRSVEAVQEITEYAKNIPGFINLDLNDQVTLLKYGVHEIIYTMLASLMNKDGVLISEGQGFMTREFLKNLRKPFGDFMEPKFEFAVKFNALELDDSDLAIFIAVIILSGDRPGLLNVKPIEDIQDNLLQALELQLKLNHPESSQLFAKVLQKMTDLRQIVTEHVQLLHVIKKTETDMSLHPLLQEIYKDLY

PPARγ2 and HDAC3 = target: T2, PPARγ2 and HDAC3 (Homo sapiens, UniProt P37231); assay: GST pull-down, effect on interaction between PPARγ2 and HDAC3; type: binding; conditions: in the presence of ligand (10 nM RZD, 24 hours)
T2 construct: expressed in transfected cells; host or cells: 293T
T2 sequence (P37231 1-505): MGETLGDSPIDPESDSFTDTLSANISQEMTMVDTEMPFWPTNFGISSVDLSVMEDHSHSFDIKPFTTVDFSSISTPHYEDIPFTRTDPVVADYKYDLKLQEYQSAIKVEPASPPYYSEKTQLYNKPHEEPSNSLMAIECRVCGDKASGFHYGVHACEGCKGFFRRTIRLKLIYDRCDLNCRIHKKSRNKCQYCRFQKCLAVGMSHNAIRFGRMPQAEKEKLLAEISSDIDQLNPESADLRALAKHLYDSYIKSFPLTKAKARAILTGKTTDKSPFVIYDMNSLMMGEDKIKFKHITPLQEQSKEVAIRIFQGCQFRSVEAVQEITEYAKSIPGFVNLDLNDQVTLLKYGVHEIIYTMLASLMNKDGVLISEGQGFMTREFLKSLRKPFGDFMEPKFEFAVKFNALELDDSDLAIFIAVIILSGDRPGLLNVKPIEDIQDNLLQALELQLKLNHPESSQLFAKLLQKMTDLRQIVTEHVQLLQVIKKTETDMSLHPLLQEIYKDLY
Method: Therefore, in order to understand a regulation mechanism of sLZIP in the PPARγ2 transcriptional activity by binding to the FABP4 promoter region, an effect of sLZIP on the interaction between PPARγ2 and HDAC3 was examined. For this purpose, 293T cells were transfected with GST-HDAC3, Myc-PPARγ2 and Flag-sLZIP, and were treated or not treated with 10 nM of RZD for 24 hours. Cell lysates were subjected to GST pull-down analysis using a glutathione 4B bead, and a protein complex was analyzed in SDS-PAGE, and then immunoblotted with anti-GST, anti-Myc and anti-Flag antibodies (FIG. 6A). GST-HDAC3, GST-PPARγ2, Myc-PPARγ2, Flag-sLZIP and Ha-UB were expressed in the 293T cells, and the cells were treated with 10 nM of RZD for 24 hours. Cell lysates were subjected to GST pull-down analysis (FIG. 6B). GST-PPARγ2 and Flag-sLZIP were expressed in the 293T cells and treated with 10 nM of RZD for 24 hours. Cell lysates were subjected to GST pull-down analysis, and a protein complex was analyzed in SDS-PAGE, and then immunoblotted with anti-PGC1α, anti-GST and anti-Flag antibodies (FIG. 6C).

[1] = Solubility in saline or buffer solution; type: physicochemical

transcriptional activity of PPARγ2 (relative luciferase activity) (PPARγ2): decreased
B1: sLZIP: human small leucine-zipper protein, isoform of LZIP, 354 amino acids, no transmembrane domain, GenBank FJ263669, SEQ ID NO: 1 (protein, listed as Homo sapiens)
chain: MELELDAGDQDLLAFLLEESGDLGTAPDEAVRAPLDWALPLSEVPSDWEVDDLLCSLLSPPASLNILSSSNPCLVHHDHTYSLPRETVSMDLESESCRKEGTQMTPQHMEELAEQEIARLVLTDEEKSLLEKEGLILPETLPLTKTEEQILKRVRRKIRNKRSAQESRRKKKVYVGGLESRVLKYTAQNMELQNKVQLLEEQNLSLLDQLRKLQAMVIEISNKTSSSSMYSSDTRGSLPAEHGVLSRQLRALPSEDPYQLELPALQSEVPKDSTHQWLDGSDCVLQAPGNTSCLLHYMPQAPSAEPPLEWPFPDLFSEPLCRGPILPLQANLTRKGGWLPTGSPSVILQDRYSG
interaction between PPARγ2 and HDAC3 (PPARγ2 and HDAC3): enhanced interaction between PPARγ2 and HDAC3
solubility [1]: very soluble
